Assay results: patent publication US20260174875A1 (Novo Nordisk A/S, priority 2023, published 2026)
Numbered stars: 1 amine (or outer) side, 2 acyl side, 3 side chain; on linkers, the order of the positions; unused ones are H or OH. Square brackets hold non-standard residues; d marks the D form. Side chains are listed from the residue outwards. * marks the point of attachment. C20 diacid = O=C(O)CCCCCCCCCCCCCCCCCCC(=O)*; C18 diacid = O=C(O)CCCCCCCCCCCCCCCCC(=O)*; C16 diacid = O=C(O)CCCCCCCCCCCCCCC(=O)*; γGlu = O=C(O)[C@H](CCC(=O)[*:2])N[*:1]; Chem. 28 = not defined here; AEEA = NCCOCCOCC(=O)O; Aib = CC(C)(N)C(=O)O

B1: Compound 65 (peptide)
peptide: H[Aib]HGTFTSDYSILLEEQAAREFIEWLLAGGPSK([AEEA-AEEA-γGlu-C18 diacid])GEASQLSTAALGRLSAELHGLATLPRTETGSGSP-NH2
B2: Compound 57 (peptide)
peptide: Y[Aib]EGTFTSDYSILLEEQAAREFIEWLLAGGPSSGAGQAPGQAPGASHLSTAQTQRLSAELHRLATLPK(Chem. 28)TETGSGSP-NH2
modifications: reading uncertain
B3: Compound 69 (peptide)
peptide: H[Aib]HGTFTSDYSILLEEQAAREFIEWLLAGGPSRGEASHLSTAQTQRLSAELHK([AEEA-AEEA-γGlu-C18 diacid])LATLPRTETGSGSP-NH2
B4: Compound 61 (peptide)
peptide: H[Aib]HGTFTSDYSILLEEQAAREFIEWLLAGGPSK([AEEA-AEEA-γGlu-C16 diacid])GAPPPSGGGEASHLSTAQTARLSAELHRLADLPRTETGSGSP-NH2
B5: Compound 62 (peptide)
peptide: H[Aib]HGTFTSDYSILLEEQAAREFIEWLLAGGPSK([AEEA-AEEA-γGlu-C16 diacid])GEASQLSTAALGRLSAELHRLADLPRTETGSGSP-NH2
B6: Compound 59 (peptide)
peptide: Y[Aib]EGTFTSDYSILLEEQAAREFIEWLLAGGPSSGALAQTLAQTLASHLSTAQTQRLSAELHK([AEEA-AEEA-γGlu-C16 diacid])LATLPRTETGSGSP-NH2
B7: Compound 63 (peptide)
peptide: H[Aib]HGTFTSDYSILLEEQAAREFIEWLLAGGPSK([AEEA-AEEA-γGlu-C18 diacid])GEASQLSTAALGRLSAELHTLATLPRTETGSGSP-NH2
B8: Compound 64 (peptide)
peptide: H[Aib]HGTFTSDYSILLEEQAAREFIEWLLAGGPSK([AEEA-AEEA-γGlu-C18 diacid])GEASQLSTAALGRLSAELHQLATLPRTETGSGSP-NH2
B9: Compound 70 (peptide)
peptide: H[Aib]HGTFTSDYSILLEEQAAREFIEWLLAGGPSRGAPPPSGGGEASELSTAALGRLSAELHK([AEEA-AEEA-γGlu-C18 diacid])LATLPRTETGSGSP-NH2
B10: Compound 67 (peptide)
peptide: Y[Aib]EGTFTSDYSILLEEQAAREFIEWLLAGGPSRGEASELSTAALGRLSAELHK([AEEA-AEEA-γGlu-C18 diacid])LATLPRTETGSGSP-NH2
B11: Compound 60 (peptide)
peptide: Y[Aib]EGTFTSDYSILLEEQAAREFIEWLLAGGPSSGALAQTLAQTLASHLSTAQTQRLSAELHK([AEEA-AEEA-γGlu-C20 diacid])LATLPRTETGSGSP-NH2
B12: Compound 68 (peptide)
peptide: Y[Aib]EGTFTSDYSILLEEQAAREFIEWLLAGGPSRGEASHLSTAQTQRLSAELHK([AEEA-AEEA-γGlu-C18 diacid])LATLPRTETGSGSP-NH2
B13: Compound 58 (peptide)
peptide: Y[Aib]EGTFTSDYSILLEEQAAREFIEWLLAGGPSSGAGQAPGQAPLASHLSTAQTQRLSAELHK(Chem. 28)LATLPRTETGSGSP-NH2
modifications: reading uncertain

How the values were obtained:
Experiment in all cases: cell-based or functional assay
human GIP receptor [1] = target: T1, human GIP receptor (human, UniProt P48546 22-466)
T1 sequence (looked up): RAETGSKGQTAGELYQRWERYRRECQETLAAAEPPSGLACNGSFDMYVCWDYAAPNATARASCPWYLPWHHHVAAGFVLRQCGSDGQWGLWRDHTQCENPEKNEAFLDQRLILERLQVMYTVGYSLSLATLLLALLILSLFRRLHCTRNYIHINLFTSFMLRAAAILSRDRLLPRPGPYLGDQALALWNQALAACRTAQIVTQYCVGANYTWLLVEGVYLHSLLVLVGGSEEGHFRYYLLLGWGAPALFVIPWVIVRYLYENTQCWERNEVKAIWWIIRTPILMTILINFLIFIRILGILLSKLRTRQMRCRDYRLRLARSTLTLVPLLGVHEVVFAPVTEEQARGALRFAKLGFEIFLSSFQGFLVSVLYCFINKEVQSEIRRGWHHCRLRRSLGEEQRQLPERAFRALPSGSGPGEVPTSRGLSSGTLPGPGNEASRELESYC

human GLP-1 receptor [2] = target: T2, human GLP-1 receptor (human, UniProt P43220 24-463)
[3] = target: T3, human amylin-3(a) receptor (human, UniProt P30988 25-474; O60896 24-148)
T3 sequence (looked up) 1: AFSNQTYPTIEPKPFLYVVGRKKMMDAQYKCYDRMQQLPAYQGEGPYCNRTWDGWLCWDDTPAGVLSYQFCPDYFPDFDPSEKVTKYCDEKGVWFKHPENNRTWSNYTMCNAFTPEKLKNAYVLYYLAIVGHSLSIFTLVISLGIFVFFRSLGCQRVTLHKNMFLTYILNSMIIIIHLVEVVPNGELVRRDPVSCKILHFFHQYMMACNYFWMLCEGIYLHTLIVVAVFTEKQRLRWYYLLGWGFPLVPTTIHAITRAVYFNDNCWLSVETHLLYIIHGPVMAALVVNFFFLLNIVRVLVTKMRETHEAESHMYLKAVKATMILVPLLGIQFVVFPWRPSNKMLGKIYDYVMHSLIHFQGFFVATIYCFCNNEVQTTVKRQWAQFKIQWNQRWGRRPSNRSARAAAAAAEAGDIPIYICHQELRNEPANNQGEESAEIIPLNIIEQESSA
T3 sequence (looked up) 2: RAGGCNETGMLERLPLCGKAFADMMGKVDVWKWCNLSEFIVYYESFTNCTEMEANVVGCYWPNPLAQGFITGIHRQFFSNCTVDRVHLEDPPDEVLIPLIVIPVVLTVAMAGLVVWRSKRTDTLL

human GIP receptor [4] = target: T1, human GIP receptor; remark: listed apart in the source
human GLP-1 receptor [5] = target: T2, human GLP-1 receptor; remark: listed apart in the source
[6] = target: T3, human amylin-3(a) receptor; remark: listed apart in the source

Row | hGIPR Potency, 1% HSA, EC50 [pM] (human GIP receptor [1]) | hGLP-1R Potency, 1% HSA, EC50 [pM] (human GLP-1 receptor [2]) | hAMYR3 Potency, 1% HSA, EC50 [pM] [3] | hGIPR Potency, no HSA, EC50 [pM] (human GIP receptor [4]) | hGLP-1R Potency, no HSA, EC50 [pM] (human GLP-1 receptor [5]) | hAMYR3 Potency, no HSA, EC50 [pM] [6] | Binder
1 | 118 pM | 100 pM | 127 pM | 1.89 pM | 4.86 pM | 2.84 pM | B1
2 | 5.85 pM | 29.6 pM | 85 pM | 1.98 pM | 12.8 pM | 3 pM | B2
3 | 8.05 pM | 20.4 pM | 78.9 pM | 1.9 pM | 3.45 pM | 3.43 pM | B3
4 | 16 pM | 14.7 pM | 30.8 pM | 1.3 pM | 2.79 pM | 2.97 pM | B4
5 | 47.2 pM | 11.5 pM | 28.8 pM | 2.26 pM | 4.13 pM | 3.35 pM | B5
6 | 27.2 pM | 39.8 pM | 24.2 pM | 7.72 pM | 50.6 pM | 3.85 pM | B6
7 | 63.2 pM | 101 pM | 70.2 pM | 1.6 pM | 4.77 pM | 2.86 pM | B7
8 | 100 pM | 67.8 pM | 109 pM | 2.03 pM | 3.71 pM | 1.91 pM | B8
9 | 19.1 pM | 18.4 pM | 59.4 pM | 5.89 pM | 3.48 pM | 4.53 pM | B9
10 | 37 pM | 105 pM | 190 pM | 4.28 pM | 15.4 pM | 3.66 pM | B10
11 | 28.3 pM | 173 pM | 191 pM | 6.06 pM | 94.4 pM | 3.85 pM | B11
12 | 11.9 pM | 51.9 pM | 230 pM | 1.83 pM | 12.1 pM | 2.57 pM | B12
13 | 7.58 pM | 25.6 pM | 134 pM | 1.88 pM | 12.7 pM | 2.91 pM | B13
